The record followed here is the RNAGym collection of RNA variant scans (doi:10.7554/elife.80360).

The labels stand for the following.
B1: HDV Ribozyme (parent)
chain: GGCCGGCAUGGUCCCAGCCUCCUCGCUGGCGCCGGCUGGGCAACAUUCCGAGGGGACCGUCCCCUCGGUAAUGGCGAAUGGGACCCA

Variants of B1 are the subject of this series. Nature of the series: self-cleavage, relative activity (ratio to wild type); higher = more cleavage; co-transcriptional.
C19G G35C: the self-cleavage was 0.208.
With C19G G35U the figure was 0.119; with C19G C84G, 0.0941.
With C19G G80C the figure was 0.0773.
In the case of C19A U37G, the self-cleavage stood at 0.151.
As for C19A U37A, the self-cleavage came out at 0.0519.
Regarding U20A G34U, the self-cleavage is 0.
With U20A C49U the figure was 0.0665; with C19G G52C, 0.121.
As for C19G G52A, the self-cleavage was 0.0739.
To U20A A43G belongs 0.0573; to C19A U72G, 0.095; to C19A U72C, 0.0978.
With C19G C57A the figure was 0.0256.
C19G C57U: the self-cleavage came to 0.0528.
To U20A A83U belongs 0.0978; to U20A A83C, 0; to C19A G35C, 0.125.
Consider C19G A70G, for which the self-cleavage turned out to be 0.104.
To C19G A70U belongs 0.102; to C19U A45U, 0.136; to C19G A45C, 0.0583.
As to C19G A45U, the self-cleavage is 0.0396.
With C19G G25C the figure was 0.156.
With C19G G25A the figure was 0.113.
Regarding C19G U47A, the self-cleavage came out at 0.106.
Take C19G U47C: the self-cleavage was 0.0852.
To C19U G39U belongs 0.0449.
To C19U G39A belongs 0.0779; to C19U C63U, 0.134.
With C19U C63G, the self-cleavage was determined as 0.0707.
Regarding C19G U27C, the self-cleavage worked out at 0.0875.
With C19G A51C the figure was 0.0369; with C19G A51G, 0.0361.
To C19U U79C belongs 0.0415; to C19G G28A, 0.237.
To C19U C64U belongs 0.148; to C19U C64G, 0.0923; to C19U C64A, 0.0554.
As to C19G C49A, the self-cleavage is 0.0354.
Regarding C19A G82U, the self-cleavage worked out at 0.0898.
On to C19A G82C, for which the self-cleavage worked out at 0.133.
With C19G G68U the figure was 0.119; with C19G G59U, 0.04.
With C19G G59A the figure was 0.0542.
With C19G G59C the figure was 0.141.
Regarding C19G G31C, the self-cleavage is 0.104.
With C19U U27G the figure was 0.237; with C19U C49A, 0.0378.
To U20A G31U belongs 0.0978; to C19U G67A, 0.0739; to C19A G50A, 0.0231.
With C19A G50U the figure was 0.254; with C19A G59C, 0.04; with U20A G28U, 0.0386.
As for U20A G28A, the self-cleavage stood at 0.145.
With U20A G28C the figure was 0.0573; with C19U C61G, 0.176; with U20A C63U, 0.101.
With U20A C63A the figure was 0.0504; with U20A C84G, 0.196.
With U20A C84U the figure was 0.0449; with C19A G68C, 0.149.
On to C19A G68U, for which the self-cleavage was found to be 0.178.
As to U20A C48A, the self-cleavage is 0.0573.
To U20A C85A belongs 0.26; to C19U G34U, 0.0755; to C19U U72C, 0.0354.
With C19G C26U the figure was 0.249; with C19U G81C, 0.101; with C19U G81A, 0.
To C19G G82U belongs 0.0627.
Turning to C19G G82A, the self-cleavage came to 0.102.
With C19U A83G the figure was 0.0985; with C19U A83U, 0.148.
For the variant C19U C84G, the self-cleavage was determined as 0.0332.
With U20A A71C the figure was 0.0554.
Turning to U20A A71U, the self-cleavage turned out to be 0.0504.
As to C19G A87U, the self-cleavage is 0.0839.
C19G A87G: the self-cleavage came out at 0.16.
To C19G A87C belongs 0.0849; to C19U G52C, 0.326.
To U20A G25C belongs 0.151; to U20A G25U, 0.119.
To U20A G25A belongs 0.0852.
For the variant C19A G39U, the self-cleavage was 0.0639.
With U20A, the self-cleavage was found to be 0.0723.
For the variant U20A C26U, the self-cleavage came out at 0.158.
As for U20A C26A, the self-cleavage turned out to be 0.0594.
With C19U G53A the figure was 0.229.
To C19U G53C belongs 0.0875; to C19G U72C, 0.101.
Turning to C19A G25C, the self-cleavage worked out at 0.0386.
With C19G U79A the figure was 0; with C19G U79C, 0.0264.
Take C19U A56G: the self-cleavage came to 0.119.
To C19U A56C belongs 0.0936; to C19U G76U, 0.288.
As to C19U G76C, the self-cleavage amounted to 0.277.
With C19G A77U the figure was 0.0437; with C19G A77G, 0.0426; with C19G A77C, 0.111.
With C19A G67C, the self-cleavage came to 0.0615.
With C19G C61G the figure was 0.0378; with C19G C61U, 0.0707.
As to C19U C33G, the self-cleavage came to 0.0923.
To C19U C33U belongs 0.234; to C19U C85U, 0.22.
Regarding C19A U27G, the self-cleavage was determined as 0.158.
In the case of U20A A78G, the self-cleavage was 0.
U20A A78C: the self-cleavage is 0.107.
With U20A A78U the figure was 0.
With C19G C36G the figure was 0.0264.
To C19A G28C belongs 0.0462; to C19U A42U, 0.035.
On to U20A C64U, for which the self-cleavage is 0.138.
With C19G A43C the figure was 0.0652; with C19G A43U, 0.0594; with C19A G53C, 0.23.
To U20A C66G belongs 0.107.
On to U20A C66A, for which the self-cleavage was 0.
With C19G C86U the figure was 0.26.
In the case of C19U C36A, the self-cleavage amounted to 0.0639.
Take C19U C36G: the self-cleavage is 0.0723.
To C19G C85U belongs 0; to C19U A71G, 0.104; to C19U A71C, 0.0898.
Turning to U20A C61G, the self-cleavage is 0.0536.
To U20A C61U belongs 0.208; to U20A C57G, 0.
With U20A C57U the figure was 0.0707; with C19U C66G, 0.155.
To C19U G68U belongs 0.168; to C19U G68C, 0.148; to C19U G68A, 0.148.
As for C19U U69G, the self-cleavage worked out at 0.0692.
With C19U U69A the figure was 0.212; with C19G C32U, 0.0302; with C19G C58U, 0.0272.
As to C19G C58A, the self-cleavage is 0.0256.
With C19G G74C the figure was 0.0665.
With C19G G74U the figure was 0.0601.
Turning to C19U A51G, the self-cleavage stood at 0.194.
To C19U G29C belongs 0.122; to C19U C22G, 0.0692.
With C19U U47A the figure was 0.191; with C19U U47C, 0.111.
With C19A U46C the figure was 0.0665; with C19U G38U, 0.
Regarding C19U G38C, the self-cleavage was found to be 0.0875.
With C19G C41U the figure was 0.155; with C19G C41A, 0.157.
Consider C19G G67U, for which the self-cleavage is 0.058.
To C19G G67A belongs 0.0779; to C19G C22U, 0.0804.
With C19G C22A the figure was 0.
Consider C19G C22G, for which the self-cleavage worked out at 0.
With C19U A78C the figure was 0.172; with C19U A78G, 0.0405; with C19A C86U, 0.0674.
On to C19U C26A, for which the self-cleavage was 0.446.
To C19U C26G belongs 0.356; to U20A G55U, 0.0302.
To U20A G55C belongs 0.0536.
Consider U20A C30A, for which the self-cleavage amounted to 0.0739.
As for U20A C30U, the self-cleavage stood at 0.0415.
As to U20A G40C, the self-cleavage was determined as 0.178.
